# Data taken from patent publication US7387779B2, “Anti-angiogenic proteins and fragments and methods of use thereof” (Beth Israel Deaconess Medical Center, priority 1998, dated 2008).
# Experiments:
# C-PAE cells = assay: Cell cycle analysis (propidium iodide, flow cytometry); type: cell-based, bovine; conditions: for percentage of cells in G0/G1 phase: bFGF control 53.4%; for G1 (cell cycle arrest assay): Table 4
# Protocol: To further evaluate the mechanism of T3 peptide on endothelial cell proliferation, the effect of T3 peptide on cell cycle progression was analyzed. In the growth arrested and contact inhibited cells (0 hour), 4.1% of cells were in S phase. […] This was true even at a maximal dosage of 100 μg/ml. The effect of the T3 peptide was dose-dependent, however, with the percentage of cells in S phase at 21.4% at 10 μg/ml, and 20.5% at 25 μg/ml. The percentage of cells in G0/G1 phase was 88.3% at 0 hour, 53.4% for the bFGF control, and 57.6%, 57.6% and 71.0% for treatments with T1, T6 and T3 peptide, respectively. […] Apoptotic Activity: Peptides T2, T3, T4, T5 and T6 (10 μg/ml concentration) were tested for their effect of viability of C-PAE cells using the MTT assay, as described in Examples 32 and 36 above. The results are shown in FIG. 43D, which is a histogram showing cell viability as measured at OD595 (y-axis), and treatments with the synthetic peptides (x-axis). […] TNF-α (100 ng/ml) was used to serve as a positive control in inducing endothelial cell apoptosis.
# The effect of Tumstatin-44-131 and Tum-5-125-C-A on the cell cycle were assayed similarly to Example 4 above. Briefly, C-PAE cells were growth arrested by contact inhibition for 48 hours. The cells, at 10^5 cells per well, were then harvested and plated into a 12-well plate coated with fibronectin in 5% FCS and either recombinant Tumstatin-44-131 or Tum-5-125-C-A. After 21 hours, the cells were harvested and fixed in 70% ice-cold ethanol. The fixed cells were rehydrated a room temperature for 30 minutes in PBS containing 2% FCS and 0.1% Tween-20, centrifuged and resuspended in 0.5 ml of the same buffer. RNase (5 μg/ml) digestion was done at 37° C. for one hour, followed by staining with propidium iodide (5 μg/ml). The cells were then counted using an EPICS XL-MCL flow cytometer (Beckman-Coulter Instruments, Fullerton, Calif., USA).
# 786-O tumors = assay: 786-O renal cell carcinoma xenograft; type: in vivo, athymic nude mice; conditions: for inhibition of tumor growth compared to placebo: 10 mg/kg I.P. daily, 10 days
# Protocol: In the first group of six mice, the tumors were allowed to grow to about 700 mm^3. In a second group of six mice, the tumors were allowed to group to 100 mm^3. Arresten in sterile PBS was injected I.P. daily for 10 days, at a concentration of 20 mg/kg for the mice with tumors of 700 mm^3, and 10 mg/kg for the mice with tumors of 100 mm^3. Control mice received either BSA or the PBS vehicle. […] Tumors in the Arresten-treated mice shrank from 700 to 500 mm^3, while tumors in BSA-treated and control mice grew to about 1200 mm^3 in 10 days. […] The tumors were allowed to grow to either about 100 mm^3 or about 700^3. Each group contained 6 mice. Canstatin in sterile PBS was injected I.P. daily at a concentration of 10 mg/kg for 10 days. The control group received the same volume of PBS. The results are shown in FIGS. 17C (100 mm^3 tumors) and […] (700 mm^3 tumors). In both groups, the Canstatin-treated (.box-solid.) tumors actually shrank relative to the controls (□). Tumstatin's effect on another established primary tumors in mice was also studied. […] Tumstatin was intraperitoneally injected daily (6 mg/kg) for 10 days in sterile PBS. The control group received BSA injections. […] E. Coli-produced Tumstatin at 6 mg/kg inhibited the tumor growth of 786-O human renal cell carcinoma as compared to the BSA control (FIG. 27B). […] Each point represents the mean i SE of 5-6 mice per group. Data points marker with an asterisk were significant, with P<0.05 by one tailed Student's t test. […] The tumors were allowed to grow to a size of about 100-150 mm^3. The mice were then divided into groups of 5, and were injected daily intraperitoneally with 20 mg/kg of the E. Coli-expressed truncated Tumstatin lacking the 53 N-terminal amino acids (Kalluri, R. et al., 1996, J. Biol. Chem. 271:9062-68) for 10 days. Control mice received PBS injection. The results are shown in FIG. 28, which is a graph showing increase in tumor volume (y-axis) against day of treatment (x-axis) for control mice (□) and mice treated with the Tumstatin mutant N53 (●). […] Each point represents the mean ±SE of 5-6 mice/group. Data points marked with an asterisk were significant, with P<0.05 by one-tailed Student's t test.
# WM-164 cells = assay: Attachment of melanoma cells to coated plates; type: cell-based, human
# Text: Tumstatin and all three of the deletion mutants […] attachment of WM-164 melanoma cells to the plates.
molecule,measurement,setting,value
LQRFTTMPFLFCNVNDVCNF [T3],percentage of cells in S phase,"C-PAE cells; bFGF 24 hours (control 22.1%), 50 μg/ml",13.8%
same,percentage of cells in S phase,"C-PAE cells; bFGF 24 hours, 10 μg/ml",21.4%
same,percentage of cells in S phase,"C-PAE cells; bFGF 24 hours, 25 μg/ml",20.5%
same,percentage of cells in G0/G1 phase,C-PAE cells,71.0%
GLKGKRGDSGSPATWTTRGF [T1],percentage of cells in S phase,"C-PAE cells; bFGF 24 hours (control 22.1%), T1 or T6, maximal dosage of 100 μg/ml",22.3%
same,percentage of cells in G0/G1 phase,C-PAE cells,57.6%
"Canstatin: NC1 domain of the α2 chain of Type IV collagen (SEQ ID NO:6) (protein, listed as Homo sapiens) VSIGYLLVKHSQTDQEPMCPVGMNKLWSGYSLLYFEGQEKAHNQDLGLAGSCLARFSTMPFLYCNPGDVCYYASRNDKSYWLSTTAPLPMMPVAEDEIKPYISRCSVCEAPAIAIAVHSQDVSIPHCPAGWRSLWIGYSFLMHTAAGDEGGGQSLVSPGSCLEDFRATPFIECNGGRGTCHYYANKYSFWLTTIPEQSFQGSPSADTLKAGLIRTHISRCQVCMKNL",inhibition of tumor growth compared to placebo,786-O tumors; large (700 mm^3) tumors,3 fold
same,inhibition of tumor growth compared to placebo,786-O tumors; small (100 mm^3) tumors,4 fold
"Tumstatin-44-131: residues 44 to 131 of full-length Tumstatin (SEQ ID NO:33) (protein, Tumstatin-45-132 (amino acids 45-132 of SEQ ID NO10)) FSFLFVQGNQRAHGQDLGTLGSCLQRFTTMPFLFCNVNDVCNFASRNDYSYWLSTPALMPMNMAPITGRALEPYISRCTVCEGPAIAI",percentage of cells in S phase,"C-PAE cells; 5% FCS 21 hours (control 21.5%), dose not given",6.0%
same,percentage of cells in S phase,"C-PAE cells; 5% FCS 21 hours, 1 μg/ml",19.3%
same,percentage of cells in S phase,"C-PAE cells; 5% FCS 21 hours, 10 μg/ml",11.3%
same,G1 (cell cycle arrest assay),C-PAE cells,<5 µg
"Tum-4: residues 181 to 244 of Tumstatin (SEQ ID NO:25) (protein, Tum-4 (amino acids 181-244 of SEQ ID NO10)) EFRASPFLECHGRGTCNYYSNSYSFWLASLNPERMFRKPIPSTVKAGELEKIISRCQVCMKKRH",binding of WM-164 cells to coated plates,WM-164 cells,bind to WM-164 cells
"Tumstatin: NC1 domain of the α3 chain of type IV collagen, residues 1-244 (SEQ ID NO:10) (protein, listed as Homo sapiens) GLKGKRGDSGSPATWTTRGFVFTRHSQTTAIPSCPEGTVPLYSGFSFLFVQGNQRAHGQDLGTLGSCLQRFTTMPFLFCNVNDVCNFASRNDYSYWLSTPALMPMNMAPITGRALEPYISRCTVCEGPAIAIAVHSQTTDIPPCPHGWISLWKGFSFIMFTSAGSEGTGQALASPGSCLEEFRASPFLECHGRGTCNYYSNSYSFWLASLNPERMFRKPIPSTVKAGELEKIISRCQVCMKKRH",tumor volume on day 10,"786-O tumors; 6 mg/kg i.p. daily, start 600-700 mm^3, control 1096±179.7",619±120.7 mm^3
same,binding of WM-164 cells to coated plates,WM-164 cells,bind to WM-164 cells
same,G1 (cell cycle arrest assay),C-PAE cells,10 µg
"Tum-2: residues 1 to 132 of Tumstatin (SEQ ID NO:23) (protein, Tum-2 (amino acids 1-132 of SEQ ID NO10)) GLKGKRGDSGSPATWTTRGFVFTRHSQTTAIPSCPEGTVPLYSGFSFLFVQGNQRAHGQDLGTLGSCLQRFTTMPFLFCNVNDVCNFASRNDYSYWLSTPALMPMNMAPITGRALEPYISRCTVCEGPAIAI",binding of WM-164 cells to coated plates,WM-164 cells,bind to WM-164 cells
"Tum-1: residues 54 to 244 of Tumstatin, lacking the N-terminal 53 amino acids (SEQ ID NO:22) (protein, Tum-1 (Tumstatin N-53) (amino acids 54-244 of SEQ ID NO10)) QRAHGQDLGTLGSCLQRFTTMPFLFCNVNDVCNFASRNDYSYWLSTPALMPMNMAPITGRALEPYISRCTVCEGPAIAIAVHSQTTDIPPCPHGWISLWKGFSFIMFTSAGSEGTGQALASPGSCLEEFRASPFLECHGRGTCNYYSNSYSFWLASLNPERMFRKPIPSTVKAGELEKIISRCQVCMKKRH",tumor volume on day 10,"786-O tumors; start 100-150 mm^3, 6 mg/kg in the result sentence (20 mg/kg in the method), control 345.0±24.0",110.0±29.0 mm^3
same,binding of WM-164 cells to coated plates,WM-164 cells,bind to WM-164 cells
same,G1 (cell cycle arrest assay),C-PAE cells,5 µg
